Measured values: PMC11303871 (The Journal of Cell Biology, 2024)
Each block holds one binder with its values, some of them ahead of it.

Target: T1, 3xFlag::CYB-3 (in situ-tagged cyclin B3) (C. elegans, UniProt Q10654 1-385)
T1 sequence: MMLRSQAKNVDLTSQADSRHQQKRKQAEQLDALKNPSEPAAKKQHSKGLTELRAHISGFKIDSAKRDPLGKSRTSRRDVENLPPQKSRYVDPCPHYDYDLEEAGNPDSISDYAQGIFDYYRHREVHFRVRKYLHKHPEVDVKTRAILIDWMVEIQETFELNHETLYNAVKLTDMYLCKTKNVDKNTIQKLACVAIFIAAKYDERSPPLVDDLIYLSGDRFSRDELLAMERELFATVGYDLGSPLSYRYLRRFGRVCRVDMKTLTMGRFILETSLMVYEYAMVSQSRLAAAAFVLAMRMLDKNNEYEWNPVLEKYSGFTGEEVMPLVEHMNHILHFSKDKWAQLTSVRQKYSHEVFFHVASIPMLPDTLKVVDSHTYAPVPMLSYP
Assay: co-IP

amount of CDK-1 bound relative to CYB-1: ~1.3 times
B1: CDK-1 (C. elegans Cdk1), endogenous (enzyme)
chain: not shown

amount of pT179 CDK-1 bound relative to CYB-1: ~1.3 fold
B2: CDK-1 phosphorylated at T179 (pT179 CDK-1), endogenous (enzyme)
chain: not shown
modifications: phosphothreonine at 179 (pT179)

amount of pY33 CDK-1 bound relative to CYB-1: ~1.3 fold
B3: CDK-1 phosphorylated at Y33 (pY33 CDK-1), endogenous (enzyme)
chain: not shown
modifications: phosphotyrosine at 33 (pY33)
